The text below walks through data of CN112979797A (CHINESE ACAD INSPECTION & QUARANTINE, dated 2021).

The target of the test is T1, 原核表达的带HIS标签的重组蛋白SBV-N (SBV, UniProt H2AM13 1-233).
T1 sequence: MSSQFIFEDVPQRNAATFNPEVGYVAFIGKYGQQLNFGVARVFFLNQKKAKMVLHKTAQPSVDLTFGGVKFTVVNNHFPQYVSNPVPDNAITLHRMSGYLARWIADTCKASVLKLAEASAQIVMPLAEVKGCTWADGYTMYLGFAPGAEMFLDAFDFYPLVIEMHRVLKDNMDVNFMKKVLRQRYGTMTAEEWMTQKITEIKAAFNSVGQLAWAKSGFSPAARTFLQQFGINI
The experiment in a line: Western blot, hybridoma supernatant on His-tagged recombinant protein. In general terms: Immunoblotting shows a protein as a band on a membrane.

B1: 单克隆抗体2D3 (antibody, V domains shown)
VH: EVQLQQSKTELVRSGASVKLSCTASGFNIKDYFIHWVKQRPEQGLEWIGWIDPENGDTEYAPKFQGKATMTADTSSNTAYLQLGSLTSEDTAVYYCYSRGWHLENLEYWGQGTTLTVSS
VL: DVLMTQTPLSLPVSLGDQASISCRSSQSIVHSNGNTYLEWYLQKPGQSPKLLIYKVSNRFSGVPDRFSGSGSGTDFTLKISRVEAEDLGVYYCFQGSHVPRTFGGGTKLEIKR
notes: also called 2D3单抗; 2D3抗体
In the case of B1, the binding result is recorded as “no binding”.
